Results published in US20260109758A1 (BIOSION, published 2026).
Read-outs that look alike come from different tables or passages of the source.

Tests used:
[1] = biological target: T1, recombinant human TSLP-his (human, UniProt Q969D9 29-159, biotin-labeled in the ELISAs); assay: SPR Biacore; TSLP-his amine-coupled to CM5 chip, antibody as analyte; 1:1 Langmuir fit
T1 construct: In-house made; not shown: His tag at the C-terminus
Experimental: Un-reacted moieties on the biosensor surface were blocked with ethanolamine. Then, serially diluted purified bispecific antibodies and the controls (2-fold serial dilution in HBS-EP⁺ buffer starting at 100 nM) were respectively flowed onto the chip at a flow rate of 30 μL/min. The antigen-antibody association kinetics was followed for 4 minutes and the dissociation kinetics was followed for 13 minutes.

[2] = biological target: T1, recombinant human TSLP-his; assay: capture ELISA: antibody captured on anti-human IgG Fc F(ab')2, biotin human TSLP-his, SA-HRP
Experimental: (§1) Briefly, 96-well micro plates were coated with 100 μL 2 μg/mL AffiniPure F(ab′)₂ Fragment Goat Anti-Human IgG, Fey fragment specific (Jackson Immuno Research, Cat #109-006-008) in PBS and incubated overnight at 4° C. Plates were washed 4 times with wash buffer (PBS+0.05% Tween-20, PBST) and then blocked with 200 μL/well blocking buffer (5% w/v non-fatty milk in PBST) for 2 hours at 37° C. […] After the final wash, the plates were incubated with 100 μL/well TMB (Innoreagents). The reaction was stopped 15 minutes later at room temperature with 50 μL/well 1M H₂SO₄, and the absorbance of each well was read on a microplate reader using dual wavelength mode with 450 nm for TMB and 630 nm as the reference wavelength. The OD (450-630) values were plotted against antibody concentration. Data was analyzed using Graphpad Prism and EC₅₀ values were reported.

[3] = biological target: T1, recombinant human TSLP-his; assay: as above; remark: listed apart in the source
Experimental: as §1

B1: hu1C5F12E9-V8(IgG1) (antibody)
heavy: QVQLVQSGAEVKKPGASVKVSCKASGYTFTTYWMHWVRQAPGQGLEWMGVIDPSDSDTTYNQKFKGRVTMTRDTSTSTVYMELSSLRSEDTAVYYCTRSLDGYYDYWGQGTLVTVSSASTKGPSVFPLAPSSKSTSGGTAALGCLVKDYFPEPVTVSWNSGALTSGVHTFPAVLQSSGLYSLSSVVTVPSSSLGTQTYICNVNHKPSNTKVDKKVEPKSCDKTHTCPPCPAPEAQGGPSVFLFPPKPKDTLYITREPEVTCVVVDVSHEDPEVKFNWYVDGVEVHNAKTKPREEQYNSTYRVVSVLTVLHQDWLNGKEYKCQVSNKALPAPIEKTISKAKGQPREPQVYTLPPSRDELTKNQVSLTCLVKGFYPSDIAVEWESNGQPENNYKTTPPVLDSDGSFFLYSKLTVDKSRWQQGNVFSCSVMHEALHNHYTQKSLSLSPG
light: DIQMTQSPSSLSASVGDRVTITCRPTENIYSYLAWYQQKPGKAPKLLIYFARTLAEGVPSRFSGSGSGTDFTLTISSLQPEDFATYYCQHHYGTPWTFGGGTKVEIKRTVAAPSVFIFPPSDEQLKSGTASVVCLLNNFYPREAKVQWKVDNALQSGNSQESVTEQDSKDSTYSLSSTLTLSKADYEKHKVYACEVTHQGLSSPVTKSFNRGEC
notes: Monospecific control, full-length IgG1; also called anti-TSLP hu1C5F12E9-V8
Kd [1]: < 0.0157 nM | koff [1]: < 1e-05 s⁻¹ | kon [1]: 636000 M⁻¹ s⁻¹ | EC50 [2]: 0.0487 nM | EC50 [3]: 0.0511 nM
